Results on 10 molecules are retold here after patent US20230212549A1, “COMPOUNDS COMPRISING A […] LIGAND AND USE THEREOF” (priority 2021, published 2023).

Numbered stars: 1 amine (or outer) side, 2 acyl side, 3 side chain; on linkers, the order of the positions; unused ones are H or OH. Bridge positions count the residues as written; N and C are the ends. Square brackets hold non-standard residues; d marks the D form. Primed or numbered codes have the meaning given here. Side chains are listed from the residue outwards. * marks the point of attachment. tMeBn(DOTA-PP) = 1,3,5-trimethylbenzylidene, two thioethers to Cys, third CH2 bound to one N of piperazine whose other N bears DOTA, O=C(O)CN1CCN(CC(=O)O)CCN(CC(=O)N2CCN(Cc3cc(C[*:1])cc(C[*:2])c3)CC2)CCN(CC(=O)O)CC1; Ttds(6) = 1,13-Diamino-4,7,10-trioxatridecan-succinamic acid, O=C(CCC(=O)[*:2])NCCCOCCOCCOCCCN[*:1]; 3MeBn = 3-Methylbenzylidene (m-xylylene thioether bridge from α,α′-dibromo-m-xylene); N4Ac = 6-Carboxy-1,4,8,11-tetraazaundecane, an N4-chelator, NCCNCC(CNCCN)C(=O)*; mXylylene = c1cc(C[*:1])cc(C[*:2])c1; NMeE = CN[C@@H](CCC(=O)O)C(=O)O; DOTA′ = not defined here; Nle = CCCC[C@H](N)C(=O)O; Nphe = O=C(O)CNCc1ccccc1; Apr = not defined here; Hexanoyl = CCCCCC(=O)*; Nlys = NCCCCNCC(=O)O Bounds are passed on as bounds.

For assay [1], the target named is human fibroblast activation protein (FAP) on WI-38 fibroblasts (human) (UniProt Q12884). The assay can be described thus: competitive FACS, WI-38 cells, Cy5-labeled peptide as competitor.
Assay [2] addresses fibroblast activation protein (FAP) on FAP-expressing human WI-38 fibroblasts (human) (UniProt Q12884). As to the kind of experiment: competitive FACS, WI-38 cells, vs Cy5 tracer m3; D = pIC50 <=6.0.
The target in assay [3] is fibroblast activation protein (FAP) on FAP-expressing human WI-38 fibroblasts (human), Q12884. The description is as above. Particulars: remark: other sources report otherwise.

B1: Hex-[Cys(3MeBn)-Nlys-Pro-Thr-Gln-Phe-Cys]-NH2 (peptide)
peptide: Hexanoyl-C[Nlys]PTQFC-NH2
modifications: linker 1-7 via mXylylene
SMILES: CCCCCC(=O)N[C@H]1CSCc2cccc(c2)CSC[C@@H](C(N)=O)NC(=O)[C@H](Cc2ccccc2)NC(=O)[C@H](CCC(N)=O)NC(=O)[C@H]([C@@H](C)O)NC(=O)[C@@H]2CCCN2C(=O)CN(CCCCN)C1=O
For B1, in assay [1], the pIC50 Category (FACS) was less than 6 pIC50.

B2: Hex-[Cys(3MeBn)-Nphe-Pro-Thr-Gln-Phe-Cys]-NH2 (peptide)
peptide: Hexanoyl-C[Nphe]PTQFC-NH2
modifications: linker 1-7 via mXylylene
SMILES: CCCCCC(=O)N[C@H]1CSCc2cccc(c2)CSC[C@@H](C(N)=O)NC(=O)[C@H](Cc2ccccc2)NC(=O)[C@H](CCC(N)=O)NC(=O)[C@H]([C@@H](C)O)NC(=O)[C@@H]2CCCN2C(=O)CN(Cc2ccccc2)C1=O
With B2, the pIC50 Category (FACS) in assay [1] is less than 6 pIC50.

B3: Hex-[Cys(3MeBn)-Pro-Pro-Ala-Glu-Phe-Cys]-NH2 (peptide)
peptide: Hexanoyl-CPPAEFC-NH2
modifications: linker 1-7 via mXylylene
SMILES: CCCCCC(=O)N[C@H]1CSCc2cccc(c2)CSC[C@@H](C(N)=O)NC(=O)[C@H](Cc2ccccc2)NC(=O)[C@H](CCC(=O)O)NC(=O)[C@H](C)NC(=O)[C@@H]2CCCN2C(=O)[C@@H]2CCCN2C1=O
For B3, in assay [2], the pIC50 Category (FACS) was less than 6 pIC50.

B4: Hex-[Cys(3MeBn)-Pro-Pro-Thr-Glu(NH-Apr-DOTA′)-Phe-Cys]-Asp-NH2 (peptide)
peptide: Hexanoyl-CPPTE([Apr-DOTA′])FCD-NH2
modifications: linker 1-7 via mXylylene; reading uncertain; also: printed as Hex-[Cys(3MeBn)-Pro-Pro-Thr-Glu(NH-Apr-DOTA′)-Phe-Cys]-Asp-NH2
Molecule B4 displayed a pIC50 Category (FACS) in assay [2] of less than 6 pIC50.

B5: Hex-[Cys(tMeBn(DOTA-PP))-Thr-Gln-Pro-Phe-Pro-Cys]-Asp-NH2 (peptide)
peptide: Hexanoyl-CTQPFPCD-NH2
modifications: linker 1-7 via tMeBn(DOTA-PP)
SMILES: CCCCCC(=O)N[C@H]1CSCc2cc(cc(CN3CCN(C(=O)CN4CCN(CC(=O)O)CCN(CC(=O)O)CCN(CC(=O)O)CC4)CC3)c2)CSC[C@@H](C(=O)N[C@@H](CC(=O)O)C(N)=O)NC(=O)[C@@H]2CCCN2C(=O)[C@H](Cc2ccccc2)NC(=O)[C@@H]2CCCN2C(=O)[C@H](CCC(N)=O)NC(=O)[C@H]([C@@H](C)O)NC1=O
In assay [1], B5 displayed a pIC50 Category (FACS) of less than 6 pIC50.

B6: Hex-[Cys(3MeBn)-Pro-Pro-Thr-Nme-Phe-Cys]-NH2 (peptide)
peptide: Hexanoyl-CPPT[NMeE]FC-NH2
modifications: linker 1-7 via mXylylene
SMILES: CCCCCC(=O)N[C@H]1CSCc2cccc(c2)CSC[C@@H](C(N)=O)NC(=O)[C@H](Cc2ccccc2)NC(=O)[C@H](CCC(=O)O)N(C)C(=O)[C@H]([C@@H](C)O)NC(=O)[C@@H]2CCCN2C(=O)[C@@H]2CCCN2C1=O
With B6, in assay [2], the pIC50 Category (FACS) is less than 6 pIC50.

B7: N4Ac-Ttds-Glu(AGLU′)-Nle-[Cys-(3MeBn)-Pro-Pro-Thr-Glu-Phe-Cys]-OH (peptide)
peptide: N4Ac-[Ttds(6)]E[Nle]CPPTEFC-OH
modifications: linker 4-10 via 3MeBn; not fully specified (residue 2); printed as N4Ac-Ttds-Glu(AGLU′)-Nle-[Cys-(3MeBn)-Pro-Pro-Thr-Glu-Phe-Cys]-OH
In assay [1], B7 came in with a pIC50 Category (FACS) of less than 6 pIC50.

B8: Hex-[Cys(tMeBn(DOTA-PP))-Phe-Gln-Thr-Pro-Pro-Cys]-Asp-NH2 (peptide)
peptide: Hexanoyl-CFQTPPCD-NH2
modifications: linker 1-7 via tMeBn(DOTA-PP)
SMILES: CCCCCC(=O)N[C@H]1CSCc2cc(cc(CN3CCN(C(=O)CN4CCN(CC(=O)O)CCN(CC(=O)O)CCN(CC(=O)O)CC4)CC3)c2)CSC[C@@H](C(=O)N[C@@H](CC(=O)O)C(N)=O)NC(=O)[C@@H]2CCCN2C(=O)[C@@H]2CCCN2C(=O)[C@H]([C@@H](C)O)NC(=O)[C@H](CCC(N)=O)NC(=O)[C@H](Cc2ccccc2)NC1=O
For the molecule B8, the pIC50 Category (FACS) in assay [1] was less than 6 pIC50.

B9: Hex-[Cys(3MeBn)-Ala-Pro-Thr-Glu-Phe-Cys]-NH2 (peptide)
peptide: Hexanoyl-CAPTEFC-NH2
modifications: linker 1-7 via mXylylene
SMILES: CCCCCC(=O)N[C@H]1CSCc2cccc(c2)CSC[C@@H](C(N)=O)NC(=O)[C@H](Cc2ccccc2)NC(=O)[C@H](CCC(=O)O)NC(=O)[C@H]([C@@H](C)O)NC(=O)[C@@H]2CCCN2C(=O)[C@H](C)NC1=O
Consider B9, for which the pIC50 Category (FACS) in assay [3] was less than 6 pIC50.

B10: Hex-[Cys(3MeBn)-Pro-Pro-Thr-Glu-Ala-Cys]-NH2 (peptide)
peptide: Hexanoyl-CPPTEAC-NH2
modifications: linker 1-7 via mXylylene
SMILES: CCCCCC(=O)N[C@H]1CSCc2cccc(c2)CSC[C@@H](C(N)=O)NC(=O)[C@H](C)NC(=O)[C@H](CCC(=O)O)NC(=O)[C@H]([C@@H](C)O)NC(=O)[C@@H]2CCCN2C(=O)[C@@H]2CCCN2C1=O
In the case of B10, the pIC50 Category (FACS) in assay [3] is less than 6 pIC50.
